Source: patent US20140302063A1 (SECRETARY OF STATE FOR HEALTH, published 2014)

Key:
Experiment in all cases: ELISA, inactivated virus
[1] = biological target: A/TurkTurk/1/2005 (H5N1) inactivated viral preparation (Influenza A virus A/turkey/Turkey/1/2005 (H5N1))
[2] = biological target: A/mallard/Eng/727/06 (H2N3) inactivated viral preparation (Influenza A virus A/mallard/Eng/727/06 (H2N3))
[3] = biological target: A/HongKong/1073/99 (H9N2) inactivated viral preparation (Influenza A virus A/HongKong/1073/99 (H9N2))
[4] = biological target: A/HongKong/213/2003 (H5N1) inactivated viral preparation (Influenza A virus A/HongKong/213/2003 (H5N1))
[5] = biological target: A/Indonesia/05/2005 (H5N1) inactivated viral preparation (Influenza A virus A/Indonesia/05/2005 (H5N1))
[6] = biological target: A/Duck/Sing-Q/97 (H5N3) inactivated viral preparation (Influenza A virus A/Duck/Sing-Q/97 (H5N3))
[7] = biological target: A/Vietnam/119/2004 (H5N1) inactivated viral preparation (Influenza A virus A/Vietnam/119/2004 (H5N1))

Binder | EC50 [1] | EC50 [2] | EC50 [3] | EC50 [4] | EC50 [5] | EC50 [6] | EC50 [7]
R2b-E8 (VHH) VHH: QVQLVESGGGLVQPGGSLRLSCAASGSFFSRYRMGWYRQAPGEQRELVAGITYDDSTNYAGSVKGRFTISRDNAKNTVHLQMNSLKPEDTAVYYCNLNPPGNLYWGQGTQVTVSS | 0.89 µg/mL | 0.002 µg/mL | 5.63 µg/mL | 1.2 µg/mL | 0.8 µg/mL | 4.98 µg/mL | 1.83 µg/mL
R2b-D9 (VHH) VHH: QVQLVESGGGLVQPGGSLRLSCLASGSAFSLYTMGWYRQAPGNQRELVAAITSGESTNYADSVKGRFTISRDNAKNTVYLQMNSLKPEDTAVYYCNADPLSTGWGQYSYWGQGTQVTVSS | 0.76 µg/mL | 0.06 µg/mL | – | 2.8 µg/mL | 0.58 µg/mL | 5.64 µg/mL | 1.81 µg/mL
R1a-A5 (VHH) VHH: QVQLVESGGGLVQPGGSLRLSCSASGSAVLFSTYPMSWYRQAPGKQRELVAAVTTDGSTSYADYAKGRFTISRDNAKNTVYLQMNSLKPEDTAVYYCNARDGFFNRYDYWGQGTQVTVSS | 0.13 µg/mL | 0.006 µg/mL | – | 0.27 µg/mL | 0.15 µg/mL | 0.27 µg/mL | 0.25 µg/mL
R1a-B6 (VHH) VHH: QVQLVESGGGLVQPGGSLRLSCAASGSFFSRYRMGWYRQAPGEQRELVASIAYDGSTSYADPVKGRFTISRDNANTVHLQMYSLKPDDTAVYYCNLDPPGILYWGQGTQVTVSS | 0.44 µg/mL | 0.102 µg/mL | 2.3 µg/mL | 0.37 µg/mL | 0.42 µg/mL | 1.32 µg/mL | 0.82 µg/mL
R1a-H6 (VHH) VHH: QVQLVESGGGLVQAGDSLRLSCTASVLTFSLYRVGWFRQAPGKEREFVAAIDWGDGPTTYADSVKGRFTISRDNAERTAYLQINSLKPEDTAVYYCGAGNTGSSDRSSSYVHWGQGTQVTVSS | – | – | 5.7 µg/mL | – | – | – | –
R2a-G8 (VHH) VHH: QLQLAESGGGLVQAGGSLRLSCAASGSTLNNNAIGWFRQAPGKEREGVSCMNSRDGTTNYADSVKGRFTISRDVAKNTVYLQMNSLKPEDTAVYFCAVKGFAPFLIGCPWGKAEYDYWGQGTQVTVSS | 1.93 µg/mL | 2.5 µg/mL | – | 6.2 µg/mL | 5.7 µg/mL | 9.67 µg/mL | 3.36 µg/mL
R1a-C5 (VHH) VHH: QVQLVESGGGLVQPGGSLRLSCAASNDIFSFYTMGWYLQAIGKQREPVAVIGNGGNTNYAESVKGRFTISRDGAKNTAYLQMNSLKPEDTAVYYCMASGPGGLNVWGQGTQVTVSS | 0.15 µg/mL | 0.06 µg/mL | 4.48 µg/mL | 2.9 µg/mL | 1.17 µg/mL | 7.57 µg/mL | 2.89 µg/mL
